Literature values in patent US11414673B2, “Hypersensitive ABA receptors having modified PP2C-binding interfaces” (THE REGENTS OF THE UNIVERSITY OF CALIFORNIA, priority 2017, dated 2022).

Tested on: ABA responses
Conditions: Pizzio et al., Plant Physiol. 163, 441-455 (2013)

B1: PYL4^A194T: PYL4 ABA receptor with A194T mutation in its carboxyl terminus, described by Pizzio et al. (protein, UniProt O80920 1-207, looked up, variant A194T)
Abscisic acid receptor PYL4: MLAVHRPSSAVSDGDSVQIPMMIASFQKRFPSLSRDSTAARFHTHEVGPNQCCSAVIQEISAPISTVWSVVRRFDNPQAYKHFLKSCSVIGGDGDNVGSLRQVHVVSGLPAASSTERLDILDDERHVISFSVVGGDHRLSNYRSVTTLHPSPISGTVVVESYVVDVPPGNTKEETCDFVDVIVRCNLQSLAKITENTAAESKKKMSL
ABA concentration needed to elicit measured ABA responses, in comparison to wild type PYL4: requires lower concentrations of ABA
